Where a chain is given by its changes, count along the chain named.
B1: NYA-2027 (scFv)
scFv: GEVQLVESGGGVVQPGRSLTPSCSASGFSIRSYDIHWVRQAPGKGLEWVATISYDGSQKYFADSVKGRFTIFRDESENMVYLQMSGLRVEDTAVYHCARGSSGHYEAFDIWGQGTMVTVSSGGGGSGGGGSGGGGSQSVLTQPPSVSAAPGQKVTISCSGSSSNIGNNYVSWYQQLPGTAPKLLIYDNNKRPSGIPDRFSGSKSGTSATLGITGLQTGDEADYYCGSWDSSLSAPWVFGGGTKVTVLGAAAGAGGDYKDDDDKGAAAHHHHHH
B2: NYZ-1010 (bispecific antibody, human IgG1, lambda, L234A L235A)
chain 1: not shown
chain 2: not shown
light: NFMLTQPSSVSGVPGQRVTISCTGNTGNIGSNYVNWYQQLPGTAPKLLIYRDDKRPSGVPDRFSGSKSGTSASLAITGFQAEDEADYYCQSYSSGFIFGGGTKLTVLGQPKAAPSVTLFPPSSEELQANKATLVCLISDFYPGAVTVAWKADSSPVKAGVETTTPSKQSNNKYAASSYLSLTPEQWKSHRSYSCQVTHEGSTVEKTVAPTECS
B3: NYA-0060 (scFv, V domains shown)
VH: EVQLVESGGGVVQPGRSLTPSCSASGFSIRSYDIHWVRLAPGKGLEWVATISYDGSQKYFADSVKGRFTIFRDESENMVYLQMSGLRVEDTAVYHCARGSSGHYEAFDIWGQGTMVTVSS
VL: QSVLTQPPSVSAAPGQKVTISCSGSSSNIGNNYVSWYQQLPGTAPKLLIYDNNKRPSGIPDRFSGSKSGTSATLGITGLQTGDEADYYCGTWDSSLSAPWVFGGGTKVTVL
notes: NYA-0001 mutant from a phage library
B4: NYA-0082 (scFv, V domains shown)
VH: B3 VH with L39Q
VL: B3 VL with Q39R, T91S
notes: as for B3
B5: NYA-0068 (scFv, V domains shown)
VH: B3 VH with L39Q
VL: B3 VL with N32W
notes: as for B3
B6: NYC-0003 (scFv, not shown: small tags and cut ends)
scFv: EVQLLESGGGLVQPGGSLRLSCAASGFTFSTYQMSWVRQAPGKGLEWVSGIVSSGGSTAYADSVKGRFTISRDNSKNTLYLQMNSLRAEDTAVYYCAGELLPYYGMDVWGQGTTVTVSSGGGGSGGGGSGGGGSQSELTQPRSVSGSPGQSVTISCTGTSRDVGGYNYVSWYQQHPGKAPKLIIHDVIERSSGVPDRFSGSKSGNTASLTISGLQAEDEADYYCWSFAGSYYVFGTGTDVTVL
notes: also called 3M4E5 scFv; NYC-0003 tag adduct
B7: NYA-2060 (scFv)
scFv: GEVQLVESGGGLVQPGGSLRLSCAASGFSIRSYDIHWVRQAPGKGLEWVATISYDGSQKYYADSVKGRFTISRDESKNTLYLQMNSLRAEDTAVYHCARGSSGHYEAFDIWGQGTLVTVSSGGGGSGGGGSGGGGSQSVLTQPPSVSAAPGQKVTISCSGSSSNIGNWYVSWYQQLPGTAPKLLIYDNNKRPSGIPDRFSGSKSGTSATLGITGLQTGDEADYYCGTWDSSLSAPWVFGGGTKVTVLGAAAGAGGDYKDDDDKGAAAHHHHHH
notes: also called NYA-2060 tag adduct
B8: NYA-2061 (scFv)
scFv: GEVQLVESGGGLVQPGGSLRLSCAASGFSIRSYDIHWVRQAPGKGLEWVATISYDGSQKYYADSVKGRFTISRDESKNTLYLQMNSLRAEDTAVYHCARGSSGHYEAFDIWGQGTLVTVSSGGGGSGGGGSGGGGSQSVLTQPPSASGTPGQRVTISCSGSSSNIGNWYVSWYQQLPGTAPKLLIYDNNKRPSGVPDRFSGSKSGTSASLAISGLQSEDEADYYCGTWDSSLSAPWVFGGGTKLTVLGAAAGAGGDYKDDDDKGAAAHHHHHH
notes: also called NYA-2061 tag adduct

Columns and labels:
9A [1] = target: T1, 9A; experiment: flow cytometry on peptide-pulsed T2 cells, scFv 100 nM
T1 construct: also called HLA-A2 / point-mutant NY-ESO peptide 9A complex on T2 cells

5A [2] = target: T2, 5A; experiment: as above
T2 construct: also called HLA-A2 / point-mutant NY-ESO peptide 5A complex on T2 cells

3A [3] = target: T3, 3A; experiment: as above
T3 construct: also called HLA-A2 / point-mutant NY-ESO peptide 3A complex on T2 cells

1F = target: T4, 1F; experiment: as above
T4 construct: also called HLA-A2 / point-mutant NY-ESO peptide 1F complex on T2 cells

2M [4] = target: T5, 2M; experiment: as above
T5 construct: also called HLA-A2 / point-mutant NY-ESO peptide 2M complex on T2 cells

6L [5] = target: T6, 6L; experiment: as above
T6 construct: also called HLA-A2 / point-mutant NY-ESO peptide 6L complex on T2 cells

4A [6] = target: T7, 4A; experiment: as above
T7 construct: also called HLA-A2 / point-mutant NY-ESO peptide 4A complex on T2 cells

7F = target: T8, 7F; experiment: as above
T8 construct: also called HLA-A2 / point-mutant NY-ESO peptide 7F complex on T2 cells

8A = target: T9, 8A; experiment: as above
T9 construct: also called HLA-A2 / point-mutant NY-ESO peptide 8A complex on T2 cells

9A [7] = target: T10, 9A; experiment: flow cytometry, CD3e knockout T2 cells pulsed with 50 µM peptide, antibody at 100 nM, PE anti-human IgG; gMFI standardized to the HLA/peptide amount; DMSO-only cells 1.15
T10 construct: peptide added to CD3e knockout T2 cells at 50 µM; also called HLA-A2 / point-mutant NY-ESO peptide 9A complex on CD3e knockout T2 cells
Protocol: (§1) The cells were washed 2 times in PBS containing 5% FBS, PE conjugated F(ab′)2 Fragment Anti-Human IgG (Jackson Immuno Research Laboratories) diluted with PBS containing 5% FBS was added at 25 μl/well, and the resultant was allowed to stand at 4° C. for 30 minutes. The cells were washed 2 times in PBS containing 5% FBS, immobilized with Mildform 10 N (FUJIFILM Wako Pure Chemical Corporation) overnight, and resuspended in PBS containing 5% FBS. […] The cells were washed 2 times in PBS containing 5% FBS, immobilized with Mildform 10 N (FUJIFILM Wako Pure Chemical Corporation) overnight, and resuspended in PBS containing 5% FBS. The cell suspensions were subjected to detection using a flow cytometer (CantoII, Becton Dickinson). […] The standardized gMFI indicating the binding affinity of each Fc-conjugated anti-HLA-A2/NY-ESO-anti-CD3 bispecific molecule standardized with the amount of the HLA/peptide complex on the CD3e knockout T2 cells was determined in accordance with the following equation.

3A [8] = target: T11, 3A; experiment: as above
T11 construct: also called HLA-A2 / point-mutant NY-ESO peptide 3A complex on CD3e knockout T2 cells
Protocol: as §1

6L [9] = target: T12, 6L; experiment: as above
T12 construct: also called HLA-A2 / point-mutant NY-ESO peptide 6L complex on CD3e knockout T2 cells
Protocol: as §1

2M [10] = target: T13, 2M; experiment: as above
T13 construct: also called HLA-A2 / point-mutant NY-ESO peptide 2M complex on CD3e knockout T2 cells
Protocol: as §1

5A [11] = target: T14, 5A; experiment: as above
T14 construct: also called HLA-A2 / point-mutant NY-ESO peptide 5A complex on CD3e knockout T2 cells
Protocol: as §1

4A [12] = target: T15, 4A; experiment: as above
T15 construct: also called HLA-A2 / point-mutant NY-ESO peptide 4A complex on CD3e knockout T2 cells
Protocol: as §1

[13] = target: T16, HLA-A*0201/β2-microglobulin/NY-ESO peptide complex (human, biotinylated with E. coli biotin ligase at the added recognition sequence (biotinylated form used in the ELISA)); experiment: screening of NYA-0001 mutant phage libraries
T16 construct: also called HLA/NY-ESO; HLA-A2/NY-ESO

Binder	standardized gMFI (9A [1])	standardized gMFI (5A [2])	standardized gMFI (3A [3])	standardized gMFI (1F)	standardized gMFI (2M [4])	standardized gMFI (6L [5])	standardized gMFI (4A [6])	standardized gMFI (7F)	standardized gMFI (8A)	standardized gMFI (9A [7])	standardized gMFI (3A [8])	standardized gMFI (6L [9])	standardized gMFI (2M [10])	standardized gMFI (5A [11])	standardized gMFI (4A [12])	binding result [13]
B1	6.9	0.75	9.91	0.57	7.84	7.85	0.99	5.41	9.47							
B2										51.9	21.3	37.6	39.5	1.02	1.05	
B3																binds
B4																binds
B5																binds
B6	4.77	0.69	4.34	3.28	3.73	4.14	0.76	3.99	3.42							
B7	9.48	0.7	5.51	0.52	6.93	7.94	0.73	2.51	6.18							
B8	9.16	0.66	4.73	0.54	7.17	7.13	0.59	2.04	5.22							

Source: patent US20230348616A1 (MIE UNIVERSITY, published 2023)
